Data from article PMC12260524, “Identification of a VPS29 isoform with restricted association to Retriever and Retromer accessory proteins through autoinhibition” (Proceedings of the National Academy of Sciences of the …, 2025).

Target: GST-VPS29C (human, UniProt F8VXU5 1-214)
Experiment: ITC; 300 μM peptide titrated into 10 μM GST-tagged VPS29C, 25 °C, 50 mM Tris-HCl pH 7.5, 200 mM NaCl, 2 mM β-mercaptoethanol; single-site model
Conditions: both partners purified

Kd: > 100 µM
B1: VPS35L 16 to 38 (peptide)
peptide: EFASCRLEAVPLEFGDYHPLKPI
notes: also called VPS35L Pro-Leu motif containing peptide
